In series [1] the target is C-terminal domain of the HCoV-NL63 nucleocapsid protein (HCoV-NL63 (isolate Amsterdam 1)) (UniProt Q6Q1R8). As to the kind of experiment: SEC; CTD analysed by size exclusion chromatography; two peaks taken as dimer and monomer from retention time and SDS-PAGE; column and buffer not given. On the technique in general: SEC sorts molecules by how far they enter the pores of the column.

Series [2] has the same target. As to the kind of experiment: cross-linking; 50 ug of protein with 0.007% glutaraldehyde, 15 min at room temperature, stopped with Tris, then SDS-PAGE (Coomassie).
Series [3] concerns the molecule itself. As to the kind of experiment: native MS; ESI mass spectrometry (MicroTOF-QII, positive ionization mode) of samples dialysed into 50 mM NH4HCO3, pH 7.8; masses of monomer and dimer from deconvolved spectra.

For orientation: stoichiometry N means the number of molecules, sites or subunits per partner or assembly. In series [1], “C-terminal domain of the HCoV-NL63 nucleocapsid protein (from UniProt Q6Q1R8 221-340) (domain or fragment)” gave a percent of the protein present as dimers of 40% and a stoichiometry N of 2. For the same molecule, in series [2], the stoichiometry N is over 2.

B1: HCoV-NL63 nucleocapsid (N) protein, complete (natural protein)
chain: MASVNWADDRAARKKFPPPSFYMPLLVSSDKAPYRVIPRNLVPIGKGNKDEQIGYWNVQERWRMRRGQRVDLPPKVHFYYLGTGPHKDLKFRQRSDGVVWVAKEGAKTVNTSLGNRKRNQKPLEPKFSIALPPELSVVEFEDRSNNSSRASSRSSTRNNSRDSSRSTSRQQSRTRSDSNQSSSDLVAAVTLALKNLGFDNQSKSPSSSGTSTPKKPNKPLSQPRADKPSQLKKPRWKRVPTREENVIQCFGPRDFNHNMGDSDLVQNGVDAKGFPQLAELIPNQAALFFDSEVSTDEVGDNVQITYTYKMLVAKDNKNLPKFIEQISAFTKPSSIKEMQSQSSHVAQNTVLNASIPESKPLADDDSAIIEIVNEVLH
notes: also called WT; complete NL63-N protein; source: E. coli BL21, purified (Ni Sepharose, Resource Q, Superdex S75) to about 80% homogeneity
For B1, the “stoichiometry N” value in series [3] was 2.

The values above are taken from paper PMC4336326, “The Nucleocapsid Protein of Human Coronavirus NL63” (PLoS ONE, 2015).
